Series [1] deals with T1, RAD51 (Homo sapiens, UniProt Q06609 1-339). The experiment in a line: BLI.
The target in series [2] is T1, RAD51. Kind of series: FLIM.

T1 sequence (Q06609 whole entry): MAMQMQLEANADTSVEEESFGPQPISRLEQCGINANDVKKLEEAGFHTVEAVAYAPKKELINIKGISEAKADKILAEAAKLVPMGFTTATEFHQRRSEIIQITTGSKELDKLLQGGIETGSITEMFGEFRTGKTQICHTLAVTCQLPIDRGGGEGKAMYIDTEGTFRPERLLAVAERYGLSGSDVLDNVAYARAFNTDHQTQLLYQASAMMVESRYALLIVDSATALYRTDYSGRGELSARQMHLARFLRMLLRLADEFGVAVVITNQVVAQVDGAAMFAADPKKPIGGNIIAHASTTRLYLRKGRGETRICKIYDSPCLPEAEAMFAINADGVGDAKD

B1: Apt2 (ssDNA)
DNA: GGGGGGGGGGGGGGG
As to B1, binding with RAD51 [1] was put at a Kd of 138 ± 4 nM.

B2: Apt5 (ssDNA)
DNA: CGGGCGGGCGGG
Regarding B2, binding with RAD51 [1] was put at a Kd of 936 ± 39 nM.

B3: rcApt Texas Red (ssDNA)
DNA: GCCCCGCCCCGCCCC
modifications: locked bases at both ends stated for in-cell assays; unclear for FLIM
As for B3, the binding result with RAD51 [2] is recorded as “no binding”.

B4: rcApt (ssDNA)
DNA: GCCCCGCCCCGCCCC
Turning to B4, in the series with RAD51 [1], the binding result is listed as “no binding”.

B5: Apt1 (ssDNA)
DNA: GGGGCGGGGCGGGGC
B5 registered a Kd in the series with RAD51 [1] of 116 ± 14 nM.

B6: Apt3 (ssDNA)
DNA: CGGCGCGGCGCGGCG
In the series with RAD51 [1], B6 came in with a Kd of 188 ± 13 nM.

B7: Apt4 (ssDNA)
DNA: GCGGGGGCGGGG
On to B7, for which the Kd in the series with RAD51 [1] turned out to be 413 ± 11 nM.

B8: Apt1 Texas Red (ssDNA)
DNA: GGGGCGGGGCGGGGC
modifications: locked bases at both ends stated for in-cell assays; unclear for FLIM
As for B8, the binding result with RAD51 [2] is listed as “binds”.

The values are drawn from article PMC12770486.
